Data: patent publication US20070100561

Legend:
[1] = target: enzymatically deglycosylated soluble extracellular domain of human DPP-IV (sDPP-IVdeglycos)
[2] = target: enzymatically deglycosylated soluble extracellular domain of human dipeptidyl peptidase IV (sDPP-IVdeglycos; residues 31-766)
Sequence of enzymatically deglycosylated soluble extracellular domain of human dipeptidyl peptidase IV (sDPP-IVdeglycos; residues 31-766) (chain, as listed by the source): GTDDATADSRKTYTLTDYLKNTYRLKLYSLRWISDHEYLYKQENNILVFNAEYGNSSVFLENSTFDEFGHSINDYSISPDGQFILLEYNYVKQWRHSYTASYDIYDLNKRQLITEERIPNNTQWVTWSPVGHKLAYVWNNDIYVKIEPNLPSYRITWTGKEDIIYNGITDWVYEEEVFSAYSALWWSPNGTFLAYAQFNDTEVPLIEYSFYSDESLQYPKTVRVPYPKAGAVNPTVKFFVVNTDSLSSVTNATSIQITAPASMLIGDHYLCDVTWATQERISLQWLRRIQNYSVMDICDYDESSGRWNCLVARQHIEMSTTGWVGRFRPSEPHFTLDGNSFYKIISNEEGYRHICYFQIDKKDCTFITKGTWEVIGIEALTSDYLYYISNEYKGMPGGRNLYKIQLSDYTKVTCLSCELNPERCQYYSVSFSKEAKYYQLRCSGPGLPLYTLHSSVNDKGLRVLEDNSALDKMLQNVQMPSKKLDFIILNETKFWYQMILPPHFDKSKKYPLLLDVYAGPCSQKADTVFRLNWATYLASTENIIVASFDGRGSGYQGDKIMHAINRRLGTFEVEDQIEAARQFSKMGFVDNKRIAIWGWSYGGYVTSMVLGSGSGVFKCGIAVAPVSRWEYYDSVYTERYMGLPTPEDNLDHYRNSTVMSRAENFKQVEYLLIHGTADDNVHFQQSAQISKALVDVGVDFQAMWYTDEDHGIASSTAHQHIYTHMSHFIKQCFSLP

Sequence of enzymatically deglycosylated soluble extracellular domain of human DPP-IV (sDPP-IVdeglycos) (chain, as listed by the source): as above

B1: adenosine deaminase (ADA; Sigma Type IV, from calf intestinal mucosa) (protein)
chain: AQTPAFNKPKVELHVHLDGAIKPETILYYGRKRGIALPADTPEELQNIIGMDKPLSLPEFLAKFDYYMPAIAGCREAVKRIAYEFVEMKAKDGVVYVEVRYSPHLLANSKVEPIPWNQAEGDLTPDEVVSLVNQGLQEGERDFGVKVRSILCCMRHQPSWSSEVVELCKKYREQTVVAIDLAGDETIEGSSLFPGHVKAYAEAVKSGVHRTVHAGEVGSANVVKEAVDTLKTERLGHGYHTLEDATLYNRLRQENMHFEVCPWSSYLTGAWKPDTEHPVVRFKNDQVNYSLNTDDPLIFKSTLDTDYQMTKNEMGFTEEEFKRLNINAAKSSFLPEDEKKELLDLLYKAYGMPSPA
- KM (enzyme activity of DPP-IV in the complex with ADA) [1]: 14.8 µM
- kcat (enzyme activity of DPP-IV in the complex with ADA) [1]: 39.6 s⁻¹
- kcat/KM (enzyme activity of DPP-IV in the complex with ADA) [1]: 2.68e+06 M⁻¹ s⁻¹
- DPP-IV activity [2]: confirming the independence of DPP-IV activity on ADA binding
